{
  "source": "patent US20140141454A1",
  "target": "human EpCAM immobilized with paraformaldehyde (on PFA-treated MCF-7 or PC-3 cells) (human) (UniProt P16422)",
  "sequence (P16422 24-314 limits assumed)": "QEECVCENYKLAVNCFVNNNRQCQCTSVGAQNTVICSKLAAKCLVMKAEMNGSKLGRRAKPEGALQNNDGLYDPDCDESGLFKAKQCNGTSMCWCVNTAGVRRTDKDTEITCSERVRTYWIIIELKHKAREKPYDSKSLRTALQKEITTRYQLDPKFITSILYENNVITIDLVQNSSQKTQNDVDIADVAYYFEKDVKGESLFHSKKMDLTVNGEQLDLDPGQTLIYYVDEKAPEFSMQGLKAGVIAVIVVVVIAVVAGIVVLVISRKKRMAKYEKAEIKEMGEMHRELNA",
  "experiment": "liquid-phase ELISA on PC-3 cells in suspension, PFA-treated against untreated",
  "data": [
    {"substance": "HEA-125 anti-EpCAM monoclonal antibody", "values": [
      {"measurement": "fold change of ELISA signal after 4% PFA treatment", "value": "< 1.5", "unit": "fold"}
    ]}
  ]
}
